Experimental data published in article PMC4241754 (Biochemistry, 2010).

Biological target: the molecule itself
Test: crystal structure

B1: WlbA from Pseudomonas aeruginosa (enzyme)
chain: MASKNFALIGAAGYIAPRHMRAIKDTGNCLVSAYDINDSVGIIDSISPQSEFFTEFEFFLDHASNLKRDSATALDYVSICSPNYLHYPHIAAGLRLGCDVICEKPLVPTPEMLDQLAVIERETDKRLYNILQLRHHQAIIALKDKVAREKSPHKYEVDLTYITSRGNWYLKSWKGDPRKSFGVATNIGVHFYDMLHFIFGKLQRNVVHFTSEYKAAGYLEYEQARVRWFLSVDANDLPESVKGKKPTYRSITVNGEEMEFSEGFTDLHTTSYEEILAGRGYGIDDARHCVETVNTIRSAVIVPASDNEGHPFVAALAR
- stoichiometry N: 4
